For one molecule, Kd results are on record in article PMC9343077 (Research, 2022).

For the assay, the target named is T1, SARS-CoV-2 spike RBD (Arg319-Asn532) fused to a His tag (SARS-CoV-2, UniProt P0DTC2).
T1 construct: also called SARS-CoV-2 spike RBD-His; SARS-CoV-2-RBD-His; not shown: His tag, N-terminal, kept
The assay can be described thus: radioligand binding. The conditions noted are these: both partners purified.

B1: ^68Ga-Nb1159 (nanobody Nb11-59 conjugated to NOTA and radiolabeled with ^68Ga) (VHH)
VHH: EVQLQESGGGLVQPGGSLRLSCAASGFTFSSYDMSWVRQAPGKGLEWVSAINSSGGSTYYADSVKGRFTISRDNAKNTLYLQMNSLKTEDTAVYYCAPSQTYGGSWYWDPIGDWGQGTLVTVSS
notes: also called ^68Ga-NOTA-Nb1159; NOTA-Nb1159 (before labelling)
Turning to B1, the Kd (usually the constant that tells how readily two partners part at equilibrium) is 25.5 nM.
